Experimental findings from IntAct's records for PubMed 31515488 are described below.

B1: Oxidative stress-induced growth inhibitor 1 (Homo sapiens), Q9UJX0 (parent)
chain: MSSSRKDHLGASSSEPLPVIIVGNGPSGICLSYLLSGYTPYTKPDAIHPHPLLQRKLTEAPGVSILDQDLDYLSEGLEGRSQSPVALLFDALLRPDTDFGGNMKSVLTWKHRKEHAIPHVVLGRNLPGGAWHSIEGSMVILSQGQWMGLPDLEVKDWMQKKRRGLRNSRATAGDIAHYYRDYVVKKGLGHNFVSGAVVTAVEWGTPDPSSCGAQDSSPLFQVSGFLTRNQAQQPFSLWARNVVLATGTFDSPARLGIPGEALPFIHHELSALEAATRVGAVTPASDPVLIIGAGLSAADAVLYARHYNIPVIHAFRRAVDDPGLVFNQLPKMLYPEYHKVHQMMREQSILSPSPYEGYRSLPRHQLLCFKEDCQAVFQDLEGVEKVFGVSLVLVLIGSHPDLSFLPGAGADFAVDPDQPLSAKRNPIDVDPFTYQSTRQEGLYAMGPLAGDNFVRFVQGGALAVASSLLRKETRKPP
partner: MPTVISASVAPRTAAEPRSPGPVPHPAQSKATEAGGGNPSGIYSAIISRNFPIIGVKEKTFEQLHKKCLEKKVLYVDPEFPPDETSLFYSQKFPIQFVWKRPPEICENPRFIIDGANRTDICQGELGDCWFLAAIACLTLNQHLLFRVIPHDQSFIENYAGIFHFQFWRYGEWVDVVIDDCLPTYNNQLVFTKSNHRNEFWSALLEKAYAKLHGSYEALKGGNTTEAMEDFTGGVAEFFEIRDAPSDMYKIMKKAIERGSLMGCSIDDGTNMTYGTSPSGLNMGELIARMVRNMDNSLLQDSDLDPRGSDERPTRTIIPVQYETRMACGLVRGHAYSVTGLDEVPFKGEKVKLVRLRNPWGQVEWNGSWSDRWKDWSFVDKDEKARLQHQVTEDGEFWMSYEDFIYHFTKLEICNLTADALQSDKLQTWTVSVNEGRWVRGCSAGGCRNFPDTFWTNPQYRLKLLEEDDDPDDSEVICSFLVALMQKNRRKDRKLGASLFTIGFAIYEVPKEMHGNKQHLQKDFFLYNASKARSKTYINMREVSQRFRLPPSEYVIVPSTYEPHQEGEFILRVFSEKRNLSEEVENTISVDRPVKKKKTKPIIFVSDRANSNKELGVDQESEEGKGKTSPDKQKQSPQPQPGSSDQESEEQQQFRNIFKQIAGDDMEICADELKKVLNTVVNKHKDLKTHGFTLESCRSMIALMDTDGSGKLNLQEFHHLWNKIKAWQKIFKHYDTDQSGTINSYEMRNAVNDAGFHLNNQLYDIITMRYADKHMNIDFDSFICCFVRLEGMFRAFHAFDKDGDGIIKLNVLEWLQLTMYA
B2: Modulator of apoptosis 1 (Homo sapiens), Q96BY2 (parent)
chain: MTLRLLEDWCRGMDMNPRKALLIAGISQSCSVAEIEEALQAGLAPLGEYRLLGRMFRRDENRKVALVGLTAETSHALVPKEIPGKGGIWRVIFKPPDPDNTFLSRLNEFLAGEGMTVGELSRALGHENGSLDPEQGMIPEMWAPMLAQALEALQPALQCLKYKKLRVFSGRESPEPGEEEFGRWMFHTTQMIKAWQVPDVEKRRRLLESLRGPALDVIRVLKINNPLITVDECLQALEEVFGVTDNPRELQVKYLTTYQKDEEKLSAYVLRLEPLLQKLVQRGAIERDAVNQARLDQVIAGAVHKTIRRELNLPEDGPAPGFLQLLVLIKDYEAAEEEEALLQAILEGNFT
partner: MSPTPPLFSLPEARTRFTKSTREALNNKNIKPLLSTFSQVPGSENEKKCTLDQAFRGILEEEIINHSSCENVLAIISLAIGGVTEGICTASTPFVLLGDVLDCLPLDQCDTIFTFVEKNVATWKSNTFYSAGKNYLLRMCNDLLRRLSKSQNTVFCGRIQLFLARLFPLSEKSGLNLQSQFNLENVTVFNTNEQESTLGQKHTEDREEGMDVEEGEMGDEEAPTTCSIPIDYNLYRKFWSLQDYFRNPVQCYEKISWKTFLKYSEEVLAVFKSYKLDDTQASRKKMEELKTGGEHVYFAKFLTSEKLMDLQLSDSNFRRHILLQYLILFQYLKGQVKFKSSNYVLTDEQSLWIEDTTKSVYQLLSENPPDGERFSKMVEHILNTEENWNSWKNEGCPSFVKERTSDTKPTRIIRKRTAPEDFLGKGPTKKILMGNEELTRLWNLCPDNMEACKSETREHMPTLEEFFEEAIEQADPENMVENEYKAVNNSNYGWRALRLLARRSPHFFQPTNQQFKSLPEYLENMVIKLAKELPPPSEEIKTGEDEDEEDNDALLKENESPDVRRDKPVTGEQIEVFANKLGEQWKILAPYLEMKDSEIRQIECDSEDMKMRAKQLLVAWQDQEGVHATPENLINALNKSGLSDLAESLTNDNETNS
B3: Notch homolog 2 N-terminal-like protein A (Homo sapiens), Q7Z3S9 (parent)
chain: MCVTYHNGTGYCKCPEGFLGEYCQHRDPCEKNRCQNGGTCVAQAMLGKATCRCASGFTGEDCQYSTSHPCFVSRPCLNGGTCHMLSRDTYECTCQVGFTGKECQWTDACLSHPCANGSTCTTVANQFSCKCLTGFTGQKCETDVNECDIPGHCQHGGTCLNLPGSYQCQCLQGFTGQYCDSLYVPCAPSPCVNGGTCRQTGDFTFECNCLPETVRRGTELWERDREVWNGKEHDEN
partner: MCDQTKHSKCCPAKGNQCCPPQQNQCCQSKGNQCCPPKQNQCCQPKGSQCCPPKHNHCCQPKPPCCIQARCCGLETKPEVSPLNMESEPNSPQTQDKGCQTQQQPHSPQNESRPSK
B4: Isoform 1 of Cyclin-dependent kinase 2-interacting protein (Homo sapiens), Q9BW66-1 (parent)
chain: MEAKTLGTVTPRKPVLSVSARKIKDNAADWHNLILKWETLNDAGFTTANNIANLKISLLNKDKIELDSSSPASKENEEKVCLEYNEELEKLCEELQATLDGLTKIQVKMEKLSSTTKGICELENYHYGEESKRPPLFHTWPTTHFYEVSHKLLEMYRKELLLKRTVAKELAHTGDPDLTLSYLSMWLHQPYVESDSRLHLESMLLETGHRAL
partner: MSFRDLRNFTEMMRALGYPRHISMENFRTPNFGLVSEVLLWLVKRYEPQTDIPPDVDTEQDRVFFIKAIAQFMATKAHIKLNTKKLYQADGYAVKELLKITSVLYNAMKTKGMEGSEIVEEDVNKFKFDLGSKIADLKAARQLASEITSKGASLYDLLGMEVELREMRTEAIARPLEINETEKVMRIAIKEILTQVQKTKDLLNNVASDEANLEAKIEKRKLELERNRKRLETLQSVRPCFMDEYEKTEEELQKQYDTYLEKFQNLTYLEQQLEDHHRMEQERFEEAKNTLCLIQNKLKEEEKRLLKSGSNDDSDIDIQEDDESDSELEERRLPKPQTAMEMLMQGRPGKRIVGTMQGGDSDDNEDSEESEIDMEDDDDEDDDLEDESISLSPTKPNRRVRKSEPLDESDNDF
B5: Myogenin (Homo sapiens), P15173 (parent)
chain: MELYETSPYFYQEPRFYDGENYLPVHLQGFEPPGYERTELTLSPEAPGPLEDKGLGTPEHCPGQCLPWACKVCKRKSVSVDRRRAATLREKRRLKKVNEAFEALKRSTLLNPNQRLPKVEILRSAIQYIERLQALLSSLNQEERDLRYRGGGGPQPGVPSECSSHSASCSPEWGSALEFSANPGDHLLTADPTDAHNLHSLTSIVDSITVEDVSVAFPDETMPN
partner: B4 partner
B6: Probable RNA-binding protein EIF1AD (Homo sapiens), Q8N9N8 (parent)
chain: MSQATKRKHVVKEVLGEHIVPSDQQQIVRVLRTPGNNLHEVETAQGQRFLVSMPSKYRKNIWIKRGDFLIVDPIEEGEKVKAEISFVLCKDHVRSLQKEGFWPEAFSEVAEKHNNRNRQTQPELPAEPQLSGEESSSEDDSDLFVNTNRRQYHESEEESEEEEAA
partner: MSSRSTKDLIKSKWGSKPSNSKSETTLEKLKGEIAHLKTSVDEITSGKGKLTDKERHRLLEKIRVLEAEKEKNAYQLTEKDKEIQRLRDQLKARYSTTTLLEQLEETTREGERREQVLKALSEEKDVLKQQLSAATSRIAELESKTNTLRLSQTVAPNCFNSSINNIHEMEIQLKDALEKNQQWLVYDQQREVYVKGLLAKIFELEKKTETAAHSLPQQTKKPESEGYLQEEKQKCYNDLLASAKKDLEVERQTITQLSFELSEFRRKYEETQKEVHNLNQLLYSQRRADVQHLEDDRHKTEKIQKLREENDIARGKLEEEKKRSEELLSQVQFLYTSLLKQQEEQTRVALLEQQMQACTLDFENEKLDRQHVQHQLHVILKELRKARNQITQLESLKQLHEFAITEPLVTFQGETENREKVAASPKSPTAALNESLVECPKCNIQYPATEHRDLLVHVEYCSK
B7: Protein LDOC1 (Homo sapiens), O95751 (parent)
chain: MVDELVLLLHALLMRHRALSIENSQLMEQLRLLVCERASLLRQVRPPSCPVPFPETFNGESSRLPEFIVQTASYMLVNENRFCNDAMKVAFLISLLTGEAEEWVVPYIEMDSPILGDYRAFLDEMKQCFGWDDDEDDDDEEEEDDY
partner: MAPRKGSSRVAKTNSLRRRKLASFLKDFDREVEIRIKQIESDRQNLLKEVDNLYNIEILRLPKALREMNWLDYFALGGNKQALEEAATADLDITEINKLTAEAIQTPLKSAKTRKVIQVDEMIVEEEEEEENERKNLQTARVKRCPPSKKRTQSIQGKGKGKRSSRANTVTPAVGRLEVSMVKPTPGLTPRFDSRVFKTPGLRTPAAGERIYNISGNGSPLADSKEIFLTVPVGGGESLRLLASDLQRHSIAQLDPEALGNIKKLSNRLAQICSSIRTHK

The variants in the first test derive from B1. To be noted: with can3_human CAPN3, P20807.
As to D320N, the “effect of a mutation on the interaction” value is “with no effect”. On the same count and under the same terms, with S236L the entry was “with no effect”.

The variants in the next test derive from B2. Particulars: with thoc1_human THOC1, Q96FV9.
Consider R57K, for which the “effect of a mutation on the interaction” value is “with no effect”.

In a further test the parent is B3. Particulars: with mcsp_human SMCP.
Consider A115T, for which the “effect of a mutation on the interaction” value is “with no effect”. Still for that read-out and setting: next, R74Q: “with no effect”.

In a further test the parent is B4. Particulars: with clua1_human CLUAP1, Q96AJ1.
As to D177N, the “effect of a mutation on the interaction” value was “with no effect”.

Variants of B4 are the subject of another test. Particulars: with clua1_human CLUAP1, Q96AJ1. The source holds these as a separate data set.
Take R164H: the “effect of a mutation on the interaction” value is on record as “disrupting interaction strength”.

Variants of B5 are the subject of the next test. Particulars: with clua1_human CLUAP1, Q96AJ1.
Turning to P49H, the “effect of a mutation on the interaction” value was “with no effect”. The same measure, in the same setting: with R147C the entry was “with no effect”.

In the next test the parent is B6. Particulars: with cep55_human CEP55, Q53EZ4.
Take R48C: the “effect of a mutation on the interaction” value is reported as “with no effect”.

In a further test the parent is B7. Particulars: with borea_human CDCA8, Q53HL2.
As to L12H, the “effect of a mutation on the interaction” value is recorded as “disrupting interaction strength”.
